Source: US20060292657A1, “Phex substrates and methods using same” (priority 2003, published 2006)

Experiments:
Test in all cases: Kinetic parameters for hydrolysis of internally quenched fluorogenic peptides by secPHEX
Type in all cases: biochemical, human
Conditions in all cases: other: 37° C., 10 mM Bis-Tris buffer pH 5.5, 150 mM NaCl
[1] = substrate: CC(C)C[C@H](NC(=O)[C@H](Cc1c[nH]cn1)NC(=O)[C@H](CC(=O)O)NC(=O)c1ccccc1N)C(=O)N[C@@H](CO)C(=O)N[C@@H](CC(=O)O)C(=O)N[C@H](C(=O)N[C@@H](CO)C(=O)N[C@H](C(=O)N[C@@H](CCC(N)=O)C(=O)NCCNc1ccc([N+](=O)[O-])cc1[N+](=O)[O-])[C@@H](C)O)[C@@H](C)O
Outline: (§1)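 Purified human recombinant secPHEX hydrolysing internally quenched fluorogenic peptides at 37° C in 10 mM Bis-Tris pH 5.5, 150 mM NaCl; fluorescence (ex 320, em 420 nm) followed continuously, <5% substrate hydrolysed, inner-filter corrected. Km and kcat by non-linear regression; kcat/Km under [S]<<Km where applicable.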

[2] = substrate: CC(C)C[C@H](NC(=O)c1ccccc1N)C(=O)N[C@@H](CCC(=O)O)C(=O)N[C@@H](CC(C)C)C(=O)N[C@@H](CC(=O)O)C(=O)N[C@@H](CO)C(=O)N[C@@H](CCCNC(=N)N)C(=O)N[C@@H](CCC(N)=O)C(=O)NCCNc1ccc([N+](=O)[O-])cc1[N+](=O)[O-]
Outline: as §1

[3] = substrate: CSCC[C@H](NC(=O)[C@H](CCC(=O)O)NC(=O)[C@H](CC(N)=O)NC(=O)c1ccccc1N)C(=O)N[C@@H](CC(=O)O)C(=O)N[C@@H](CO)C(=O)N[C@@H](Cc1ccccc1)C(=O)N[C@@H](CC(N)=O)C(=O)N[C@@H](CCC(N)=O)C(=O)NCCNc1ccc([N+](=O)[O-])cc1[N+](=O)[O-]
Outline: as §1

[4] = substrate: C[C@H](NC(=O)[C@H](CC(=O)O)NC(=O)[C@H](CCC(=O)O)NC(=O)[C@H](CO)NC(=O)[C@H](CCCNC(=N)N)NC(=O)c1ccccc1N)C(=O)NCC(=O)N[C@@H](Cc1ccccc1)C(=O)N[C@@H](CCC(N)=O)C(=O)NCCNc1ccc([N+](=O)[O-])cc1[N+](=O)[O-]
Outline: as §1

[5] = substrate: NC(=O)CC[C@H](NC(=O)[C@H](Cc1ccc(O)cc1)NC(=O)[C@H](CC(=O)O)NC(=O)[C@H](CO)NC(=O)[C@H](Cc1ccccc1)NC(=O)CNC(=O)c1ccccc1N)C(=O)NCCNc1ccc([N+](=O)[O-])cc1[N+](=O)[O-]
Outline: as §1

B1: human recombinant secPHEX (Homo sapiens) (protein)
chain: SLQAKQEYCLKPECIEAAAAILSKVNLSVDPCDNFFRFACDGWISNNPIPEDMPSYGVYPWLRHNVDLKLKELLEKSISRRRDTEAIQKAKILYSSCMNEKAIEKADAKPLLHILRHSPFRWPVLESNIGPEGVWSERKFSLLQTLATFRGQYSNSVFIRLYVSPDDKASNEHILKLDQATLSLAVREDYLDNSTEAKSYRDALYKFMVDTAVLLGANSSRAEHDMKSVLRLEIKIAEIMIPHENRTSEAMYNKMNISELSAMIPQFDWLGYIKKVIDTRLYPHLKDISPSENVVVRVPQYFKDLFRILGSERKKTIANYLVWRMVYSRIPNLSRRFQYRWLEFSRVIQGTTTLLPQWDKCVNFIESALPYVVGKMFVDVYFQEDKKEMMEELVEGVRWAFIDMLEKENEWMDAGTKRKAKEKARAVLAKVGYPEFIMNDTHVNEDLKAIKFSEADYFGNVLQTRKYLAQSDFFWLRKAVPKTEWFTNPTTVNAFYSASTNQIRFPAGELQKPFFWGTEYPRSLSYGAIGVIVGHEFTHGFDNNGRKYDKNGNLDPWWSTESEEKFKEKTKCMINQYSNYYWKKAGLNVKGKRTLGENIADNGGLREAFRAYRKWINDRRQGLEEPLLPGITFTNNQLFFLSYAHVRCNSYRPEAAREQVQIGAHSPPQFRVNGAISNFEEFQKAFNCPPNSTMNRGMDSCRLW
notes: pure soluble form of PHEX (secPHEX); made in house
Q: Which results are given for B1?
A: Km [1]: 1.3 µM; kcat [1]: 0.1 s⁻¹; kcat/Km [1]: 77000 M⁻¹ s⁻¹; Km [2]: 0.9 µM; kcat [2]: 0.05 s⁻¹; kcat/Km [2]: 55500 M⁻¹ s⁻¹; Km [3]: 38.0 µM; kcat [3]: 0.3 s⁻¹; kcat/Km [3]: 7900 M⁻¹ s⁻¹; Km [4]: 4.1 µM; kcat [4]: 0.06 s⁻¹; kcat/Km [4]: 14600 M⁻¹ s⁻¹; Km [5]: 13.3 µM; kcat [5]: 0.6 s⁻¹; kcat/Km [5]: 45100 M⁻¹ s⁻¹
